What was measured:
HeLa Kyoto [1] = experiment: solubility change mitosis vs G1/S (difference of NP-40 vs SDS log2 ratios) (log2 ratio difference); higher = more soluble in mitosis
HeLa Kyoto [2] = experiment: solubility in G1/S (NP-40 vs SDS abundance) (log2 ratio); higher = more soluble; conditions: cell cycle stage: G1/S
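Wherever solubility change mitosis vs G1/S (difference of NP-40 vs SDS log2 ratios) is given: synchronized HeLa Kyoto cells (double thymidine block for G1/S, nocodazole release for mitosis), protein amounts in NP-40 versus SDS lysates quantified by mass spectrometry, three biological replicates.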
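Wherever solubility in G1/S (NP-40 vs SDS abundance) is given: HeLa Kyoto cells arrested at G1/S by double thymidine block, proteins quantified by TMT10plex mass spectrometry in mild NP-40 versus SDS extracts, three biological replicates.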

Sequence	solubility change mitosis (log2) (HeLa Kyoto [1])	solubility in G1/S (log2) (HeLa Kyoto [2])
MPVQAPQWTDFLSCPICTQTFDETIRKPISLGCGHTVCKMCLNKLHRKACPFDQTTINTDIELLPVNSALLQLVGAQVPEQQPITLCSGVEDTKHYEEAKKCVEELALYLKPLSSARGVGLNSTTQSVLSRPMQRKLVTLVHCQLVEEEGRIRAMRAARSLGERTVTELILQHQNPQQLSSNLWAAVRARGCQFLGPAMQEEALKLVLLALEDGSALSRKVLVLFVVQRLEPRFPQASKTSIGHVVQLLYRASCFKVTKRDEDSSLMQLKEEFRTYEALRREHDSQIVQIAMEAGLRIAPDQWSSLLYGDQSHKSHMQSIIDKLQTPASFAQSVQELTIALQRTGDPANLNRLRPHLELLANIDPSPDAPPPTWEQLENGLVAVRTVVHGLVDYIQNHSKKGADQQQPPQHSKYKTYMCRDMKQRGGCPRGASCTFAHSQEELEKFRKMNKRLVPRRPLSASLGQLNEVGLPSAAILPDEGAVDLPSRKPPALPNGIVSTGNTVTQLIPRGTDPSYDSSLKPGKIDHLSSSAPGSPPDLLESVPKSISALPVNPHSIPPRGPADLPPMPVTKPLQMVPRGSQLYPAQQTDVYYQDPRGAAPPFEPAPYQQGMYYTPPPQCVSRFVRPPPSAPEPAPPYLDHYPPYLQERVVNSQYGTQPQQYPPIYPSHYDGRRVYPAPSYTREEIFRESPIPIEIPPAAVPSYVPESRERYQQIESYYPVAPHPTQIRPSYLREPPYSRLPPPPQPHPSLDELHRRRKEIMAQLEERKVISPPPFAPSPTLPPTFHPEEFLDEDLKVAGKYKGNDYSQYSPWSCDTIGSYIGTKDAKPKDVVAAGSVEMMNVESKGMRDQRLDLQRRAAETSDDDLIPFGDRPTVSRFGAISRTSKTIYQGAGPMQAMAPQGAPTKSINISDYSPYGTHGGWGASPYSPHQNIPSQGHFSERERISMSEVASHGKPLPSAEREQLRLELQQLNHQISQQTQLRGLEAVSNRLVLQREANTLAGQSQPPPPPPPKWPGMISSEQLSLELHQVEREIGKRTRELSMENQCSLDMKSKLNTSKQAENGQPEPQNKVPAEDLTLTFSDVPNGSALTQENISLLSNKTSSLNLSEDPEGGGDNNDSQRSGVTPSSAP [RC3H1]	-0.0375	0.308
MPVSTSLHQDGSQERPVSLTSTTSSSGSSCDSRSAMEEPSSSEAPAKNGAGSLRSRHLPNSNNNSSSWLNVKGPLSPFNSRAAAGPAHHKLSYLGRVVREIVETERMYVQDLRSIVEDYLLKIIDTPGLLKPEQVSALFGNIENIYALNSQLLRDLDSCNSDPVAVASCFVERSQEFDIYTQYCNNYPNSVAALTECMRDKQQAKFFRDRQELLQHSLPLGSYLLKPVQRILKYHLLLQEIAKHFDEEEDGFEVVEDAIDTMTCVAWYINDMKRRHEHAVRLQEIQSLLINWKGPDLTTYGELVLEGTFRVHRVRNERTFFLFDKTLLITKKRGDHFVYKGNIPCSSLMLIESTRDSLCFTVTHYKHSKQQYSIQAKTVEEKRNWTHHIKRLILENHHATIPQKAKEAILEMDSYYPNRYRCSPERLKKAWSSQDEVSTNVRQGRRQSEPTKHLLRQLNEKARAAGMKGKGRRESESSRSSRRPSGRSPTSTEKRMSFESISSLPEVEPDPEAGSEQEVFSAVEGPSAEETPSDTESPEVLETQLDAHQGLLGMDPPGDMVDFVAAESTEDLKALSSEEEEEMGGAAQEPESLLPPSVLDQASVIAERFVSSFSRRSSVAQEDSKSSGFGSPRLVSRSSSVLSLEGSEKGLARHGSATDSLSCQLSPEVDISVGVATEDSPSVNGMEPPSPGCPVEPDRSSCKKKESALSTRDRLLLDKIKSYYENAEHHDAGFSVRRRESLSYIPKGLVRNSISRFNSLPRPDPEPVPPVGSKRQVGSRPTSWALFELPGPSQAVKGDPPPISDAEFRPSSEIVKIWEGMESSGGSPGKGPGQGQANGFDLHEPLFILEEHELGAITEESATASPESSSPTEGRSPAHLARELKELVKELSSSTQGELVAPLHPRIVQLSHVMDSHVSERVKNKVYQLARQYSLRIKSNKPVMARPPLQWEKVAPERDGKSPTVPCLQEEAGEPLGGKGKRKPVLSLFDYEQLMAQEHSPPKPSSAGEMSPQRFFFNPSAVSQRTTSPGGRPSARSPLSPTETFSWPDVRELCSKYASRDEARRAGGGRPRGPPVNRSHSVPENMVEPPLSGRVGRCRSLSTKRGRGGGEAAQSPGPLPQSKPDGGETLYVTADLTLEDNRRVIVMEKGPLPSPTAGLEESSGQGPSSPVALLGQVQDFQQSAECQPKEEGSRDPADPSQQGRVRNLREKFQALNSVG [PLEKHG3]	-0.239	-0.79
MQPGSSRCEEETPSLLWGLDPVFLAFAKLYIRDILDMKESRQVPGVFLYNGHPIKQVDVLGTVIGVRERDAFYSYGVDDSTGVINCICWKKLNTESVSAAPSAARELSLTSQLKKLQETIEQKTKIEIGDTIRVRGSIRTYREEREIHATTYYKVDDPVWNIQIARMLELPTIYRKVYDQPFHSSALEKEEALSNPGALDLPSLTSLLSEKAKEFLMENRVQSFYQQELEMVESLLSLANQPVIHSASSDQVNFKKDTTSKAIHSIFKNAIQLLQEKGLVFQKDDGFDNLYYVTREDKDLHRKIHRIIQQDCQKPNHMEKGCHFLHILACARLSIRPGLSEAVLQQVLELLEDQSDIVSTMEHYYTAF [OBFC1]	-0.0863	0.0155
MQPPPRKVKVTQELKNIQVEQMTKLQAKHQAECDLLEDMRTFSQKKAAIEREYAQGMQKLASQYLKRDWPGVKADDRNDYRSMYPVWKSFLEGTMQVAQSRMNICENYKNFISEPARTVRSLKEQQLKRCVDQLTKIQTELQETVKDLAKGKKKYFETEQMAHAVREKADIEAKSKLSLFQSRISLQKASVKLKARRSECNSKATHARNDYLLTLAAANAHQDRYYQTDLVNIMKALDGNVYDHLKDYLIAFSRTELETCQAVQNTFQFLLENSSKVVRDYNLQLFLQENAVFHKPQPFQFQPCDSDTSRQLESETGTTEEHSLNKEARKWATRVAREHKNIVHQQRVLNDLECHGAAVSEQSRAELEQKIDEARENIRKAEIIKLKAEARLDLLKQIGVSVDTWLKSAMNQVMEELENERWARPPAVTSNGTLHSLNADTEREEGEEFEDNMDVFDDSSSSPSGTLRNYPLTCKVVYSYKASQPDELTIEEHEVLEVIEDGDMEDWVKARNKVGQVGYVPEKYLQFPTSNSLLSMLQSLAALDSRSHTSSNSTEAELVSGSLNGDASVCFVKALYDYEGQTDDELSFPEGAIIRILNKENQDDDGFWEGEFNGRIGVFPSVLVEELSASENGDTPWMREIQISPSPKPHASLPPLPLYDQPPSSPYPSPDKRSSLYFPRSPSANEKSLHAESPGFSQASRHTPETSYGKLRPVRAAPPPPTQNHRRPAEKIEDVEITLV [FCHSD2]	-0.00785	0.194
MQQESERCRVRARRPDMALYVPKARRGAVLLKTGDEEESCGSPNSVVKEKQKESSLSQKEVFKDKPEARRLNINPDRKEHNCREEKKSSTKLRMDTCLQKTNRVCSKRGTTESKEVLSQGQQQGAPNAGVITNAPLQRHFKPKKVECLEVETTDVTGHERILLSQACLEISEAQVPSKPFQNVEFCDFSRHEPDGEAFEDKDLEGRIETDTKVLEILYEFPRVFSSVMKPENMIVPIKLSSDSEIVQQSMQTSDGILNPSSGGITTTSVPGSPDGVFDQTCVDFEVESVGGIANSTGFILDQKDTDSIPATMGHISLSESTNDTVSPVMIRECEKNDSTADELHVKHEPPDTAVLAHETHRDSGFKNVGDITNKACMMDTTGMSCSDHVTVDSPYVVAVRIADETSINTRSFSKFVGMSADATPLHVARSGNDTEDFSNPSACSDIYGESISSHFTESTGKLIESLSDCASSLPIKKIAGSNYNTFLDSELSMLNGTKVLSDSAVGIDLGSTGDTTEALHELRTAEEFKTEEQDDSGSIEFGVSFPDRESSSMETSIEPKATETSHTEGITAIEESWESMFNDDGDCLDPRLLQEGILMHIKPENHCSKLSGNTKSRESIQEPRSDYYNHEVPDIDLSDCEFPHVIEIYDFPQEFHTEDLLRVFCSYQKKGFDIKWVDDTHALGVFSSPITARDALGIKHTMVKIRPLSQATRAAKAKARAYAEFLQPAKERPETSAALARRLVISALGVRSKQSKTEREAELKKLQEARERKRLEAKQREDIWEGRDQSTV [R3HCC1L]	0.112	-0.118
MQREEKQLEASLDALLSQVADLKNSLGSFICKLENEYGRLTWPSVLDSFALLSGQLNTLNKVLKHEKTPLFRNQVIIPLVLSPDRDEDLMRQTEGRVPVFSHEVVPDHLRTKPDPEVEEQEKQLTTDAARIGADAAQKQIQSLNKMCSNLLEKISKEERESESGGLRPNKQTFNPTDTNALVAAVAFGKGLSNWRPSGSSGPGQAGQPGAGTILAGTSGLQQVQMAGAPSQQQPMLSGVQMAQAGQPGKMPSGIKTNIKSASMHPYQR [MED8]	0.105	0.142

Source: the supplement of paper PMC5998384
